We go through 1 molecule from patent US10947270B2, “Targeted prodrug cytosine deaminase fusion carrier and application thereof” (National Yang-Ming University, priority 2015, dated 2021).

Data set [1] is described as follows: Enzyme kinetic analysis of EcCD series fusion proteins, substrate 5-FC. The class given is biochemical. The source says:
FIGS. 11A-11D show the activity and kinetics analysis of EcCD series fusion protein enzymes, and the EcCD series proteins are combined with 5-FC at different concentrations for reaction. Respectively calculate the 5-FU formation reaction rate shown in FIG. 11A, 5-FC consumption reaction rate shown in FIG. 10B, uracil formation reaction rate shown in FIG. 10C and cytosine consumption reaction rate shown in FIG. 10D, substitute Michaelis-Menten formula, and calculate the base mass (Kcat) and Km value catalyzed by each mol enzyme in unit time.

Data set [2] in a line: Enzyme stability of EcCD series fusion protein and yCD protein in FBS or transferrin. The format is in vitro ADME. The note with it: 37° C.; for enzyme activity: 24 hours. Here is the method: FIGS. 12A-12C show an enzyme stability analysis of EcCD series fusion protein and yCD protein.
Previous literature reports indicate that the thermostability of E. coli cytosine deaminase (EcCD) is better than that of yCD. […] In order to simulate the environment of the protein in the cell killing test, the EcCD series fusion protein and the yCD protein are cultured in 10% FBS at 37° C. for 0, 1, 2, 4, 24 hours, and then determine the enzyme kinetics. It can be observed from the results that the yCD protein is cultured in 10% FBS for 1 hour, the enzyme activity is reduced to 80%, and when cultured for 2 and 4 hours, the enzyme activity is reduced to 50% and 20%, respectively, and the enzyme activity is lost after culturing for 24 hours, while the EcCD series fusion protein is similar to the culture in 100% FBS, which can maintain the original enzyme activity (see FIG. 12B). The literature points out that the metal ion of the enzyme catalytic center will affect the stability of the enzyme. In the yCD protein involved in the enzyme reaction, the metal ion of the enzyme catalytic center has a considerable relationship with the enzyme activity. The protein associated with transporting metal ions in serum is transferrin. It is speculated that transferrin may be related to the enzyme activity of yCD protein. Therefore, the EcCD series fusion protein and yCD protein are co-cultured respectively with transferrin at a concentration of 3 mg/ml (normal concentration 2.1-3.4 mg/mL) at 37° C. for 0, 1, 2, 4, 24 hours, then determine the enzyme kinetics (see FIG. 12C), it is known from the results that the longer the yCD protein is cultured in the transferrin, the lower the enzyme activity will be. […] This trend is similar to the culture at 10% in FBS. It is speculated that the factor of reducing the activity of yCD protein in FBS has a great relationship with transferrin. The stability of yCD protein in FBS is poor, and the stability of EcCD series fusion protein is better, so the industrial use of EcCD series fusion protein in both sexual and therapeutic applications is better than that of yCD protein, and it is also confirmed that the mutation of RGD4C peptide and D314A will not affect the enzyme stability of EcCD protein.

Data set [3] in a line: Relative substrate selectivity of cytosine deaminase enzyme for 5-FC and cytosine (formula 1). The format is biochemical. The note with it: relative substrate selectivity to 5-FC. The source says: Evaluation of the relative substrate selectivity of cytosine deaminase enzyme for 5-FC and Cytosine can be expressed by the following formula 1,
The higher the value, the higher the selectivity of the enzyme to the 5-FC substrate.

Data set [4] can be described thus: Enzyme kinetic analysis of yCD series proteins after DTPA modification, marking and purification. The class given is biochemical. The source says: The enzyme activity of yCD is not affected by DTPA modification.
FIGS. 24A-24B show the kinetic curve of yCD series protein modified, labeled and purified by DTPA. The enzyme activity of the two proteins is not affected by the labeling conditions. After adding EDTA with a 10-fold molar excess of protein, and it is competitively purified, In-DTPA-yCD compared with the original enzyme activity.
The curve and enzyme kinetic parameters (see FIG. 18 and Table 13) are fitted by the […] protein enzyme kinetics through the Michaelis-Menten formula in the Graph prism program.
Before the protein is labeled by radioisotope, its enzyme function must be determined, and based on the original enzyme function, it should be examined whether it will be affected during the radioactive marking process. The curve and enzyme kinetic parameters of protein are fitted by the Michaelis-Menten formula in the Graph prism program. […] Whether the yCD and RGD4C-yCD protein detected by the same method will be affected under the conditions of DTPA modification, marking and purification. […] After the completion of the radioactive metal mark, it is necessary to add EDTA of 10-fold protein Moire number and react at room temperature for 1 hour to compete for the radioactive metal isotope indium which is not chelated on DTPA. The EDTA in this step also has the chance to chelate the metal zinc ion of the enzyme catalytic center, the enzyme activity is impaired, so it is necessary to analyze the enzyme activity of In-DTPA-yCD and In-RGD4C-yCD protein after competition with EDTA. After the EDTA competitive reaction is completed, the enzyme kinetics analysis can be carried out by reducing the EDTA molecule weight through membrane centrifugation method and by replacing the solution with pH 7.0. […] The curve and receptor binding ability parameters of the protein and integrin αvβ3 are fitted under the conditions of DTPA modification, marking and purification by the One site-Specific binding formula in the Graph prism program (see FIG. 25 and Table 18). […] Although the two proteins after marking are greatly affected by the enzyme activity, they still have good binding ability to the integrin αvβ3 receptor. In consideration of the indispensability of EDTA for radiochemical purity, it retains a considerable amount of enzyme activity. In addition, the effect of integrin αvβ3 receptor binding ability is minimal, in combination of cell uptake, biodistribution and angiography experiment, focusing on the evaluation of target results, and the subsequent biological experiment is still carried out by the marking and purification conditions.

A further data set has as its target integrin αvβ3 receptor (Homo sapiens, UniProt P05106+P06756). The data set is described as follows: ELISA binding assay of yCD series recombinant protein to integrin αvβ3 receptor. To be noted: ELISA. Here is the method: FIGS. 3A-3B show the binding affinity and specificity of RGD4C-yCD, yCD, RGD4C-yCD/UPRT and yCD/UPRT proteins to integrin αvβ3. The binding affinities of RGD4C-yCD, yCD, RGD4C-yCD/UPRT and yCD/UPRT proteins to integrin αvβ3 were determined by ELISA assay using horseradish peroxidase (HRP)-tagged anti-His6 antibody (FIG. 3A). The dissociation constant Kd is obtained by prism software with curve fitting method. […] (*compared with untreated RGDfv group, P<0.05)
The specific binding ability of RGD4C-yCD, yCD, RGD4C-yCD/UPRT and yCD/UPRT recombinant protein to integrin αvβ3 receptor is analyzed by ELISA binding assay, plotted with prism software and made with curve fitting to find the dissociation constant Kd value.
Background: ELISA stands for enzyme-linked immunosorbent assay.

Chain of integrin αvβ3 receptor (P06756 31-889 limits assumed): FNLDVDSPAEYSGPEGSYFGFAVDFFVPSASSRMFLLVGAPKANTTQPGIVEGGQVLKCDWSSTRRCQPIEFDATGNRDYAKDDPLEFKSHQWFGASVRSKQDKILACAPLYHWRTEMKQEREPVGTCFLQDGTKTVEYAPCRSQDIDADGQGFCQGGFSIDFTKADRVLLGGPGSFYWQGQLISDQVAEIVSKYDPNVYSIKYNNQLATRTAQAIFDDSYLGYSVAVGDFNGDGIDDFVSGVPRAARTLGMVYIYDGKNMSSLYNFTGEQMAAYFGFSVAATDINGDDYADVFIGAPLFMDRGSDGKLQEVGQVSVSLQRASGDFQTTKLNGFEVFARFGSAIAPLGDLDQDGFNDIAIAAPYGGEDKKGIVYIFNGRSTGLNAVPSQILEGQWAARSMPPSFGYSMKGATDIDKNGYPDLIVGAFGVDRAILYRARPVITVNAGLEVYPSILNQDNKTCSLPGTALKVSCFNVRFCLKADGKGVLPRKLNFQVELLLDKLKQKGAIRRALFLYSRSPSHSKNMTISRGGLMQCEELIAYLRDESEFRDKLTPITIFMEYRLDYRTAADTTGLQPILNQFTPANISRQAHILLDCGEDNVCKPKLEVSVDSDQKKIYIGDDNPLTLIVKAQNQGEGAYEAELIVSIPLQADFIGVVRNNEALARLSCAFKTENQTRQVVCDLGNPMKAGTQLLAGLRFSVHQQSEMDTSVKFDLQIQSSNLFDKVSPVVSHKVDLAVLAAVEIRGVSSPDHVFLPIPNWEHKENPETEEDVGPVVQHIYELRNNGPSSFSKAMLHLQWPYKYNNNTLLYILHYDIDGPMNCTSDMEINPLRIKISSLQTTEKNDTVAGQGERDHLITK
Chain of integrin αvβ3 receptor (P06756 891-1048 partner limits assumed): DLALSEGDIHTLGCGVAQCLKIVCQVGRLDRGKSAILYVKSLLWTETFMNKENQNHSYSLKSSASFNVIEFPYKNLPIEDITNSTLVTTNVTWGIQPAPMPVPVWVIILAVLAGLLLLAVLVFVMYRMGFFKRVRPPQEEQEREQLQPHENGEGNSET
Chain of integrin αvβ3 receptor (P05106 27-788): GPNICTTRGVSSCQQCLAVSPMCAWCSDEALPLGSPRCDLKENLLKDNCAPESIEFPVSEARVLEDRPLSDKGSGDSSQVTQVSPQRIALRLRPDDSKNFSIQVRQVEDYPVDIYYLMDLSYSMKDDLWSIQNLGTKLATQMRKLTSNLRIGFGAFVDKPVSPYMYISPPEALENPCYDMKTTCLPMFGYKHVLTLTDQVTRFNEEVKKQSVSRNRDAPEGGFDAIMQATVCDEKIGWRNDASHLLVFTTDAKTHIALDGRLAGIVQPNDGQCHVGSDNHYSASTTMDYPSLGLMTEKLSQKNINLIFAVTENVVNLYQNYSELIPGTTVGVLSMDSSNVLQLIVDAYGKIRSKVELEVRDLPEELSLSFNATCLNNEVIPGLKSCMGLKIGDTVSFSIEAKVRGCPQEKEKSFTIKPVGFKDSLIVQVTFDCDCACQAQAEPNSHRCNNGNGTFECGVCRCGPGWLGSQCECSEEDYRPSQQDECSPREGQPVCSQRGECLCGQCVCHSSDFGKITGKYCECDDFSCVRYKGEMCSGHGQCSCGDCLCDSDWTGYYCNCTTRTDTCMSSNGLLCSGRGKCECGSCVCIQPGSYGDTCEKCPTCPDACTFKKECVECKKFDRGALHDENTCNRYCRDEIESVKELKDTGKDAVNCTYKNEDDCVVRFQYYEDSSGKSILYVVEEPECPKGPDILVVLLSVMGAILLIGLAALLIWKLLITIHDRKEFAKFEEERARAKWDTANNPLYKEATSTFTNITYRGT

B1: yCD: yeast cytosine deaminase (yCD) (SEQ ID NO: 1), recombinant protein without target molecule (protein)
chain: MVVTGGMASKWDQKGMDIAYEEAALGYKEGGVPIGGCLINNKDGSVLGRGHNMRFQKGSATLHGEISTLENCGRLEGKVYKDTTLYTTLSPCDMCTGAIIMYGIPRCVVGENVNFKSKGEKYLQTRGHEVVVVDDERCKKIMKQFIDERPQDWFEDIGELEHHHHHH
modifications: yCD
As usually defined, the Km is the substrate concentration at which the rate is half of its maximum. The term Vmax denotes the rate approached at saturating substrate. Consider B1, for which the Kcat in data set [1] (5-FC consumption (Table 5)) is 48.5 ± 1.3 s⁻¹; in data set [1] (5-FU generation) it was 47.2 ± 0.9 s⁻¹. The Km in data set [1] (5-FC consumption (Table 5)) worked out at 1000 ± 100 µM; in data set [1] (5-FU generation), 1000 ± 100 µM; in data set [4], 840 ± 71.9 µM. For the same molecule, the “enzyme activity” value is listed as “close to the loss of activity” in data set [2] (3 mg/ml transferrin) and “lost” in data set [2] (10% FBS). In addition, the “enzyme activity (Kcat/Km relative to 0 hours)” value is 80% in data set [2] (10% FBS, 1 hour); 50% in data set [2] (10% FBS, 2 hours); 20% in data set [2] (10% FBS, 4 hours). Moreover, the “[Kcat/Km(5-FC)]/{[Kcat/Km(cytosine)] + [Kcat/Km(5-FC)]}” value in data set [3] is recorded as 0.771. Besides, the maximum rate (Vmax) in data set [4] turned out to be 264.1 ± 8.256 µM/min. Further, the “binding to integrin αvβ3” value with integrin αvβ3 receptor is recorded as “cannot be bound”.
